# Experimental data: patent US20240252614A1 (Pfizer, published 2024)
# Legend:
# F protein of hPIV1 virus = F protein of hPIV1 virus (human parainfluenza virus 1); assay: cell-based or functional assay
# PIV1064 = target: T1, PIV1064 (PIV1); assay: BLI, 56C stress;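 also: binding of thermally stressed PIV1 F mutant supernatant to mAb on AHC biosensors for 5 min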
# T1 construct: F113G, F114S, Q92C-G134C, A466I, S473I, A480L
# Protocol: (§1) The OCTET HTX (Sartorius, Gottingen, Germany) instrument was used to evaluate the expression and conformational integrity for each mutant. All measurements were conducted at 30° C. temperature in 96-well black plates (Corning, Corning, NY) with a final volume of 240 μL per well at a constant agitation rate of 1000 RPM.
# (§2) Conformation integrity of PIV1 F protein mutants were evaluated by a thermal stress experiment. Crude cell culture supernatants were normalized based on the results of the titer quantitation and then incubated for 1 hour at room temperature and two higher temperatures. For the initial testing of PIV1 mutants, the two temperatures were 50° C. and 53° C. […] Anti-Human IgG Fc Capture (AHC) biosensors were first equilibrated in PB for before being dipped into more PB to establish the initial baseline. […] The mAb-bound biosensors were then dipped into the thermal stresses cell culture supernatants for 5 minutes.
# PIV1067 = target: T2, PIV1067 (PIV1); assay: BLI, 56C stress;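 also: binding of thermally stressed PIV1 F mutant supernatant to mAb on AHC biosensors for 5 min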
# T2 construct: F113G, F114S, Q92C-G134C, A466I, S473I, A480I
# Protocol: as §1, §2
# PIV1059 = target: T3, PIV1059 (PIV1); assay: BLI, 56C stress;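 also: binding of thermally stressed PIV1 F mutant supernatant to mAb on AHC biosensors for 5 min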
# T3 construct: F113G, F114S, A466L, S473L, A480L, G134A, Q92L
# Protocol: as §1, §2
# PIV1047 = target: T4, PIV1047 (PIV1); assay: BLI, 56C stress;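 also: binding of thermally stressed PIV1 F mutant supernatant to mAb on AHC biosensors for 5 min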
# T4 construct: F113G, F114S, Q92C-G134C, A466L, S473L, A480L
# Protocol: as §1, §2
# PIV1060 = target: T5, PIV1060 (PIV1); assay: BLI, 56C stress
# T5 construct: Q92L, G134A, A466L, S473L, A480L
# Protocol: as §1, §2
# PIV1066 = target: T6, PIV1066 (PIV1); assay: BLI, 56C stress
# T6 construct: A466I, S473I, A480L, Q92L, G134A
# Protocol: as §1, §2
# PIV1051 = target: T7, PIV1051 (PIV1); assay: BLI, 56C stress
# T7 construct: Q92C-G134C, A466V, S473V, A480V
# Protocol: as §1, §2
# PIV1048 = target: T8, PIV1048 (PIV1); assay: BLI, 56C stress
# T8 construct: Q92C-G134C, A466L, S473L, A480L
# Protocol: as §1, §2
# PIV1058 = target: T9, PIV1058 (PIV1); assay: BLI, 56C stress
# T9 construct: A466L, S473L, Q92A, G134A
# Protocol: as §1, §2
# PIV1057 = target: T10, PIV1057 (PIV1); assay: BLI, 56C stress
# T10 construct: A466L, S473L, A480L, Q92A, G134A
# Protocol: as §1, §2
# [1] = target: T11, PIV1 F literature prefusion comparison (PIV1); assay: BLI, 56C stress
# T11 construct: F113G, F114S, A466I, S473I (Stewart-Jones et al. 2018)
# Protocol: as §1, §2
# PIV1049 = target: T12, PIV1049 (PIV1); assay: BLI, 56C stress
# T12 construct: Q92C-G134C, A466L, S473L
# Protocol: as §1, §2
# PIV1063 = target: T13, PIV1063 (PIV1); assay: BLI, 56C stress
# T13 construct: A466L, S473L, A480L, Q92A, G134L
# Protocol: as §1, §2
# PIV1065 = target: T14, PIV1065 (PIV1); assay: BLI, 56C stress
# T14 construct: F113G, F114S, Q92C-G134C, A466I, S473I
# Protocol: as §1, §2
# PIV1056 = target: T15, PIV1056 (PIV1); assay: BLI, 56C stress
# T15 construct: F113G, F114S, A466L, S473L, A480L, Q92A, G134A
# Protocol: as §1, §2
# PIV1053 = target: T16, PIV1053 (PIV1); assay: BLI, 56C stress
# T16 construct: F113G, F114S, A466L, S473L, A480L, G134A
# Protocol: as §1, §2
# PIV1068 = target: T17, PIV1068 (PIV1); assay: BLI, 56C stress
# T17 construct: A466I, S473I, A480I, Q92L, G134A
# Protocol: as §1, §2
# PIV1062 = target: T18, PIV1062 (PIV1); assay: BLI, 56C stress
# T18 construct: F113G, F114S, A466L, S473L, A480L, Q92A, G134L
# Protocol: as §1, §2
# PIV1061 = target: T19, PIV1061 (PIV1); assay: BLI, 56C stress
# T19 construct: Q92L, G134A, A466L, S473L
# Protocol: as §1, §2
# PIV1054 = target: T20, PIV1054 (PIV1); assay: BLI, 56C stress
# T20 construct: A466L, S473L, A480L, G134A
# Protocol: as §1, §2
# PIV1050 = target: T21, PIV1050 (PIV1); assay: BLI, 56C stress
# T21 construct: F113G, F114S, Q92C-G134C, A466V, S473V, A480V
# Protocol: as §1, §2
# PIV1055 = target: T22, PIV1055 (PIV1); assay: BLI, 56C stress
# T22 construct: A466L, S473L, G134A
# Protocol: as §1, §2
# PIV1052 = target: T23, PIV1052 (PIV1); assay: BLI, 56C stress
# T23 construct: Q92C-G134C, A466V, S473V; also called PV1052
# Protocol: as §1, §2
# [2] = target: T24, stabilized hMPV F protein trimer in pre-fusion conformation (human metapneumovirus); assay: BLI, mAb captured, F protein at 50 nM
# T24 construct: also called preF-hMPV; hMPV pre-fusion F protein
# [3] = target: stabilized hPIV3 F protein trimer in pre-fusion conformation (human parainfluenza virus 3); assay: BLI, mAb captured, F protein at 50 nM
# [4] = target: T25, stabilized hPIV1 F protein trimer in pre-fusion conformation (human parainfluenza virus 1); assay: BLI, mAb captured, F protein at 50 nM
# T25 construct: also called preF-hPIV1; HPIV1 pre-fusion F protein
# hMPV069 = target: T26, hMPV069 (hMPV A, UniProt Q6WB98 19-102); assay: BLI, 50C stress
# T26 construct: S291I
# Protocol: as §1
# (§3) Conformation integrity of hMPV A F protein mutants were evaluated by thermal stress experiments. Crude cell culture supernatants were normalized based on the results of the titer quantitation and then incubated for 1 hour at room temperature and two higher temperatures. […] Anti-Human IgG Fc Capture (AHC) biosensors were first equilibrated in PB before being dipped into more PB to establish the initial baseline. […] The mAb-bound biosensors were then dipped into the thermal stressed cell culture supernatants for 5 minutes. The kinetics analysis was done by OCTET data analysis software (version 12.0, Sartorius) based on curve fitting of the entire associate step.
# hMPV071 = target: T27, hMPV071 (hMPV A, UniProt Q6WB98 19-102); assay: BLI, 50C stress
# T27 construct: T365I
# Protocol: as §1, §3
# hMPV059 = target: T28, hMPV059 (hMPV A, UniProt Q6WB98 19-102); assay: BLI, 50C stress
# T28 construct: V449P
# Protocol: as §1, §3
# hMPV052 = target: T29, hMPV052 (hMPV A, UniProt Q6WB98 19-102); assay: BLI, 50C stress
# T29 construct: L66P
# Protocol: as §1, §3
# hMPV075 = target: T30, hMPV075 (hMPV A, UniProt Q6WB98 19-102); assay: BLI, 50C stress
# T30 construct: L473F
# Protocol: as §1, §3
# hMPV049 = target: T31, hMPV049 (hMPV A, UniProt Q6WB98 19-102); assay: BLI, 50C stress
# T31 construct: E146C-T160C
# Protocol: as §1, §3
# [5] = target: F protein of hMPV A virus (human metapneumovirus A); assay: cell-based or functional assay
# [6] = target: F protein of hMPV B virus (human metapneumovirus B); assay: cell-based or functional assay
binder,measurement,setting,value
"PIV1-8 mAb (antibody, V domains shown, human IgG1; also called hPIV1-8 mAb; hPIV1-8) VH: QVQLVQSGAEVKKPGSSVKVSCEASGGTFSNYVISWVRQAPGQGLEWMGGIIPVFATAKYAQKFQGRVTIIADQSTNTAYLELSSLRSDDTAVYFCASVDSGGTWWDAFAIWGQGTMVTVSS VL: QAVVTQPRSVSGSPGQAVTISCTGTSSDVGGYNYVSWYQHHPGKAPKLIIYDVTKRPSGVPDRFSGSKSGNTASLTISGLQTEYEADYYCCSYAGSYTLVFGGGTKLTVLG","IC50, virus neutralization assay",F protein of hPIV1 virus,0.005 µg/mL
same,Response Shift,PIV1064,0.702 nm
same,Response Shift,PIV1067,0.728 nm
same,Response Shift,PIV1059,0.784 nm
same,Response Shift,PIV1047,0.754 nm
same,Response Shift,PIV1060,0.597 nm
same,Response Shift,PIV1066,0.582 nm
same,Response Shift,PIV1051,0.322 nm
same,Response Shift,PIV1048,0.71 nm
same,Response Shift,PIV1058,0.543 nm
same,Response Shift,PIV1057,0.737 nm
same,Response Shift,[1],0.119 nm
same,Response Shift,PIV1049,0.294 nm
same,Response Shift,PIV1063,-0.069 nm
same,Response Shift,PIV1065,0.677 nm
same,Response Shift,PIV1056,0.751 nm
same,Response Shift,PIV1053,0.776 nm
same,Response Shift,PIV1068,0.559 nm
same,Response Shift,PIV1062,0.623 nm
same,Response Shift,PIV1061,0.526 nm
same,Response Shift,PIV1054,0.723 nm
same,Response Shift,PIV1050,0.695 nm
same,Response Shift,PIV1055,0.682 nm
same,Response Shift,PIV1052,-0.094 nm
same,Binding response BLI,[2],-0.051 nm
same,Binding response BLI,[3],-0.052 nm
same,Binding response BLI,[4],1.96 nm
"hMPV-2 mAb (antibody, V domains shown, human IgG1) VH: QVQLQQSGAEVKKPGASVKVSCKASGYTFTSYGISWVRQAPGQGLEWMGWISGYNGNTNYAQTFQGTFTMTTDTSTSTAYMELRRLRSGDTAVYYCARDRYYASGSYNGMDVWGQGTTVTVSS VL: QSALTQPPSASGAPGQRVTVSCSGSSSNVGSSSVYWYQQLPGTAPKLLIYRNNQRPSGVPDRFSGSKSGTSASLAISGLRSEDEADYYCAAWDDSLSGWVFGGGTKLTVLG",Response Shift,hMPV069,0.465 nm
same,Response Shift,hMPV071,0.694 nm
same,Response Shift,hMPV059,0.455 nm
same,Response Shift,hMPV052,0.634 nm
same,Response Shift,hMPV075,0.653 nm
same,Response Shift,hMPV049,0.549 nm
same,"IC50, virus neutralization assay",[5],20 µg/mL
same,"IC50, virus neutralization assay",[6],23.2 µg/mL
same,Binding response BLI,[2],1.21 nm
